Data on 6 sequences can be found in a protein production outcome set (Wang et al. 2014).

The nature of this data set: label from the status in PepcDB records.
On to “MGYPPPTRRLGDKKRYHYSNNPNRRHPSAVYSKNSFPKSSNNGFVSSPTADNSTNPSVTPSTASVPLPTAAPGSTFGIEAPRPSRYDPSSVSRPSSSSYSSTRKIGSRYNPDVERSSSTTSSTPESMNTSTITHTNTDIGNSRYSRKTMSRYNPQSTSSTNVTHFPSALSNAPPFYVANGSSRRPRSMDDYSPDVTNKLETNNVSSVNNNSPHSYYSRSNKWRSIGTPSRPPFDNHVGNMTTTSNTNSIHQREPFWKANSTTILKSTHSQSSPSLHTKKFHDANKLDKPEASVKVETPSKDETKAISYHDNNFPPRKSVSKPNAPLEPDNIKVGEEDALGKKEVHKSGREIAKEHPTPVKMKEHDELEARAKKVSKINIDGKQDEIWTTAKTVASAVEVSKESQKELTRSVERKESPEIRDYERAYDPKALKTDVTKLTVDNDNKSYEEPLEKVEGCIFPLPKAETRLWELKNQKRNKIISEQKYLLKKAIRNFSEYPFYAQNKLIHQQATGLILTKIISKIKKEEHLKKINLKHDYFDLQKKYEKECEILTKLSENLRKEEIENKRKEHELMEQKRREEGIETEKEKSLRHPSSSSSSRRRNRADFVDDAEMENVLLQIDPNYKHYQAAATIPPLILDPIRKHSYKFCDVNNLVTDKKLWASRILKDASDNFTDHEHSLFLEGYLIHPKKFGKISHYMGGLRSPEECVLHYYRTKKTVNYKQLLIDKNKKRKMSAAAKRRKRKERSNDEEVEVDESKEESTNTIEKEEKSENNAEENVQPVLVQGSEVKGDPLGTPEKVENMIEQRGEEFAGELENAERVNDLKRAHDEVGEESNKSSVIETNNGVQIMDPKGAVQNGYYPEETKELDFSLENALQRKKHKSAPEHKTSYWSVRESQLFPELLKEFGSQWSLISEKLGTKSTTMVRNYYQRNAARNGWKLLVDETDLKRDGTSSESVQQSQILIQPERPNINAYSNIPPQQRPALGYFVGQPTHGHNTSISSIDGSIRPFGPDFHRDTFSKISAPLTTLPPPRLPSIQFPRSEMAEPTVTDLRNRPLDHIDTLADAASSVTNNQNFSNERNAIDIGRKSTTISNLLNNSDRSMKSSFQSASRHEAQLEDTPSMNNIVVQEIKPNITTPRSSSISALLNPVNGNGQSNPDGRPLLPFQHAISQGTPTFPLPAPRTSPISRAPPKFNFSNDPLAALAAVASAPDAMSSFLSKKENNN”, for which the protein production entry was “failed”. The result for “MHAPAILRQSGIDALLAGDGSPEIMVTDSPSPPVKRSKIWELSRTYHCPVIGLCLPASDLERFAKRFHFKASINNAHDLHVEAVCRVTSRNVVSETIHKYLDRLYESHIKQFDAAKTDSEVLALWETCFTNERIAGPLWAALTHKRISSEGREQIHDRVHMHMHEAVAELSATQHRLNQAEQMLKELAGQLEQIREKHVQTESRLRQQLQQAAAEIKQLQQSRRESETTRQRLETLESGQAILRMGQRLMQLTVENEQLQIKAAQADDLKQSLKNACHNLTELYHERDTLRVERDTLENLLLTLNSGSTTDTETADTTETKMAAYECILCVGGRSTLLPQYRTLARQLGLKLSHHDGGQEDALSRLPEMIYGAAAVICPTDYVSHAAYYQVKRLCRLGHKPCLLFKGTGVSSFAAALTKITSGQASINSSPVDTVETTT” reads “failed”. The result for “MHARDVMVSPVVTVGPNATVRQVAQILLERRISAVPVVDADNKVLGIVSEGDLLHRAESGTERSPSWWLRLLTGDAQLATDYVKSHSIKVQDVMTQEVATAAPETPLHEIAMLLEERQIKRVPIVNKEGQLVGIVSRANLLQTIASARPKLEISLPDSVIRKRFFEELRKQPWAHTFNVNATVQNGVVDIWGFAPSVAERTAIRVAAEAIPGVATVNDHLLETPAFVY” reads “failed”; that for “MHATTLPSGIRAGRHERTPPPMTVQTGQTRQTRSRTWTRVTGTAAVVAAALTATVTPSVAAPAETPPASVTAAAADVGYDTWQRDCRAVMDAALPYLKERIAGSAPGEKQAVVLDIDNTSLETDFGFSYPQPANRPVLEVAEYAQEHGVALFFVTARPGIIEAPTEWNLAHAGYESSGLYVRGFLDLFKDVAEYKTEQRAEIESKGYTIIANIGNSASDLSGGHAEKTFKLPDYDGQLS”, “failed”; that for “MHCLIHVPELMNVKGIGGFENLCDLELLTSYLEEVDLIMTNHSTKRSSRSFKISRDHSTTRSSRAHHHFTSPLDPERSSNSITPLDCILDDKLQSLLHSALNQTLEHKEEKKIPAIHSSSHSTTLVEYSS”, “failed”. The result for “MHEESGPSWGMRGLRKWLGTAPETRDELLKLVQDSRRFLEPDTVAMLEGVLDLPATKVREVMTPRTSIISLQEDDELLDILHVLIESAHSRFPVFSSDQPDNVVGILLAKDLLPFLTEPSAKVDVRALMRQPLFVPESARSDQVLRMLKHTQTHIAVVIDEYGTTSGLVTLEDILEEIVGEIEDEHDNVDEEAQYIVPDHAHTTANSWMVQALTPIEHFNTVLDADFSDDEVETVGGLLLQEIGLVSDLQGQVIELDDWQFTIIEADARTIHLIRAVHK” reads “failed”.
